Here are results for four molecules from patent US20230416371A1 (Chugai, published 2023).

The target in experiment [1] is T1, human FcγRIIIa V (allotype V158) extracellular domain (human, UniProt P08637 17-208).
T1 construct: extracellular domain; also called hFcγRIIIaV
The experiment is described as follows: SPR Biacore 8K+; KD of G1d divided by KD of this antibody. On the procedure: (§1) The extracellular domains of FcγRs were produced by the method described in WO2014104165. The interaction between the produced antibodies and human FcγRs was analyzed using Biacore 8K+by the method below. For the running buffer, 50 mM Na-Phosphate, 150 mM NaCl, and 0.05% Tween20 (pH 7.4) was used, and measurement was performed at 25° C. The sensor chip used was a Series S SA chip (GE Healthcare) onto which CaptureSelect Human Fab-kappa Kinetics Biotin Conjugate (Thermo Fisher Scientific) was immobilized. An antibody of interest was captured onto this chip, and each FcγR diluted with the running buffer was allowed to interact with it. The chip was regenerated using 10 mM Glycine-HCl (pH 1.5), and repeatedly used to capture antibodies and perform measurement. The dissociation constants KD (mol/L) of each antibody for FcγRs were calculated using Biacore Insight Evaluation Software, with a steady state affinity model for the dissociation constant for FcγRIIb and a 1:1 Langmuir binding model for the dissociation constants for the other FcγRs (Table 2).
On the technique in general: SPR reads the build-up and loss of mass on a sensor chip optically.

The target in experiment [2] is T2, human FcγRIIIa F (allotype F158) extracellular domain (human, UniProt P08637 17-208).
T2 construct: extracellular domain; also called hFcγRIIIaF
Kind of experiment: SPR Biacore 8K+; KD for FcγRIIb divided by KD for this FcγR. On the procedure: as §1

T2 sequence (P08637 17-208): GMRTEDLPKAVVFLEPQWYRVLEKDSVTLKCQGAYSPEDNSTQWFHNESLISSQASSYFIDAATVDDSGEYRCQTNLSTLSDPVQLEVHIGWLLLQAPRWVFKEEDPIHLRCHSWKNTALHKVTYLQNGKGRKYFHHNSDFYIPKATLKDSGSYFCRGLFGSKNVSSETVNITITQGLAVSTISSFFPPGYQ
T1 sequence (P08637 17-208 F176V): as the sequence (P08637 17-208) above, with F160V counted along it

B1: EGL-ART1 (H240-Kn125/L73-k0//H240-H1076/L73-k0) (antibody, human IgG1, kappa)
heavy 1: QDQLVQSGAEVKKPGASVKVSCKASGFNIKDTYIQWVRQAPGQGLEWMGRIDPLRKQTKYREKFEGRVTITADTSTNTAYMELSSLRSEDTAVYYCVRSGREFDYWGQGTLVTVSSASTKGPSVFPLAPSSKSTSGGTAALGCLVKDYFPEPVTVSWNSGALTSGVHTFPAVLQSSGLYSLSSVVTVPSSSLGTQTYICNVNHKPSNTKVDKKVEPKSCDKTHTCPPCPAPEYQWGPMVFLFPPKPKDTLMISRTPEVTCVVVDVSDEEPEVKFNWYVDGVEVHNAKTKPREEQYNATYRVVSVLTVLHQDWLNGKEYKCKVSNKALPAPIEKTISKAKGQPREPQVCTLPPSRDELTKNQVSLWCLVKGFYPSDIAVEWESNGQPENNYKTTPPVLDSDGSFFLYSKLTVDKSRWQQGNVFSCSVMHEALHNHYTQKSLSLSP
heavy 2: QDQLVQSGAEVKKPGASVKVSCKASGFNIKDTYIQWVRQAPGQGLEWMGRIDPLRKQTKYREKFEGRVTITADTSTNTAYMELSSLRSEDTAVYYCVRSGREFDYWGQGTLVTVSSASTKGPSVFPLAPSSKSTSGGTAALGCLVKDYFPEPVTVSWNSGALTSGVHTFPAVLQSSGLYSLSSVVTVPSSSLGTQTYICNVNHKPSNTKVDKKVEPKSCDKTHTCPPCPAPELLGGPSVFLFPPKPKDTLMISRTPEVTCVVVDVSHEEPEVKFNWYVDGVEVHNAKTKPREEQYNSTYRVVSVLTVLHQDWLNGKEYKCKVSNDALPMPIEETISKAKGQPREPQVYTLPPSRCELTKNQVSLSCAVKGFYPSDIAVEWESNGQPENNYKTTPPVLDSDGSFFLVSKLTVDKSRWQQGNVFSCSVMHEALHNHYTQKSLSLSP
light: DIQMTQSPSSLSASVGDRVTITCRASQDIHKYIAWYQQKPGQAPRLLIQYTSTLQPGVPSRFSGSGSGTDYTFTISSLQPEDIATYYCLQYEQLRTFGGGTKVEIKRTVAAPSVFIFPPSDEQLKSGTASVVCLLNNFYPREAKVQWKVDNALQSGNSQESVTEQDSKDSTYSLSSTLTLSKADYEKHKVYACEVTHQGLSSPVTKSFNRGEC
notes: Anti-human Epiregulin IgG1 with heterodimeric (knobs-into-holes) Fc variant; also called Kn125/H1076
As to B1, the “Relative value to KD between G1d and hFcγRs” value in experiment [1] is 323 times.

B2: EGL-ART5 (H240-Kn462/L73-k0//H240-HI441/L73-k0) (antibody, human IgG1, kappa)
heavy 1: QDQLVQSGAEVKKPGASVKVSCKASGFNIKDTYIQWVRQAPGQGLEWMGRIDPLRKQTKYREKFEGRVTITADTSTNTAYMELSSLRSEDTAVYYCVRSGREFDYWGQGTLVTVSSASTKGPSVFPLAPSSKSTSGGTAALGCLVKDYFPEPVTVSWNSGALTSGVHTFPAVLQSSGLYSLSSVVTVPSSSLGTQTYICNVNHKPSNTKVDKKVEPKSCDKTHTCPPCPAPEFQWGPMVFLFPPKPKDVLMISRTPEVTCVVVDVSDEEPEVKFNWYVDGVEVHNAKTKPREEQYNATYRVVSVLPVLHQDWLNGKEYKCKVSNDALPAPIEKTISKAKGQPREPQVCTLPPSRDELTKNQVSLWCLVKGFYPSDIAVEWESNGQPENNYKTTPPVLDSDGSFFLYSKLTVDKSRWQQGNVFSCSVMHEALHNHYTQKSLSLSP
heavy 2: QDQLVQSGAEVKKPGASVKVSCKASGFNIKDTYIQWVRQAPGQGLEWMGRIDPLRKQTKYREKFEGRVTITADTSTNTAYMELSSLRSEDTAVYYCVRSGREFDYWGQGTLVTVSSASTKGPSVFPLAPSSKSTSGGTAALGCLVKDYFPEPVTVSWNSGALTSGVHTFPAVLQSSGLYSLSSVVTVPSSSLGTQTYICNVNHKPSNTKVDKKVEPKSCDKTHTCPPCPAPELLAGPSVFLFPPKPKDVLMISRTPEVTCVVVDVSHEEPEVKFNWYVDGVEVHNAKTKPREEQYNATYRVVSVLPVLHQDWLNGKEYKCKVSNDALPAPIEETISKAKGQPREPQVYTLPPSRCELTKNQVSLSCAVKGFYPSDIAVEWESNGQPENNYKTTPPVLDSDGSFFLVSKLTVDKSRWQQGNVFSCSVMHEALHNHYTQKSLSLSP
light: DIQMTQSPSSLSASVGDRVTITCRASQDIHKYIAWYQQKPGQAPRLLIQYTSTLQPGVPSRFSGSGSGTDYTFTISSLQPEDIATYYCLQYEQLRTFGGGTKVEIKRTVAAPSVFIFPPSDEQLKSGTASVVCLLNNFYPREAKVQWKVDNALQSGNSQESVTEQDSKDSTYSLSSTLTLSKADYEKHKVYACEVTHQGLSSPVTKSFNRGEC
notes: Anti-human Epiregulin IgG1 with heterodimeric (knobs-into-holes) Fc variant
Turning to B2, the “A/I ratio (KD for FcγRIIb divided by KD for each FcγR)” value in experiment [2] was found to be 387.

B3: EGL-ART8 (H240-Kn461/L73-k0//H240-HI443/L73-k0) (antibody, human IgG1, kappa)
heavy 1: QDQLVQSGAEVKKPGASVKVSCKASGFNIKDTYIQWVRQAPGQGLEWMGRIDPLRKQTKYREKFEGRVTITADTSTNTAYMELSSLRSEDTAVYYCVRSGREFDYWGQGTLVTVSSASTKGPSVFPLAPSSKSTSGGTAALGCLVKDYFPEPVTVSWNSGALTSGVHTFPAVLQSSGLYSLSSVVTVPSSSLGTQTYICNVNHKPSNTKVDKKVEPKSCDKTHTCPPCPAPEFQWGPMVFLFPPKPKDVLMISRTPEVTCVVVDVSDEEPEVKFNWYVDGVEVHNAKTKPREEQYNATYRVVSVLPVLHQDWLNGKEYKCKVSNDALPAPEEKTISKAKGQPREPQVCTLPPSRDELTKNQVSLWCLVKGFYPSDIAVEWESNGQPENNYKTTPPVLDSDGSFFLYSKLTVDKSRWQQGNVFSCSVMHEALHNHYTQKSLSLSP
heavy 2: QDQLVQSGAEVKKPGASVKVSCKASGFNIKDTYIQWVRQAPGQGLEWMGRIDPLRKQTKYREKFEGRVTITADTSTNTAYMELSSLRSEDTAVYYCVRSGREFDYWGQGTLVTVSSASTKGPSVFPLAPSSKSTSGGTAALGCLVKDYFPEPVTVSWNSGALTSGVHTFPAVLQSSGLYSLSSVVTVPSSSLGTQTYICNVNHKPSNTKVDKKVEPKSCDKTHTCPPCPAPELLAGPSVFLFPPKPKDVLMISRTPEVTCVVVDVSHEEPEVKFNWYVDGVEVHNAKTKPREEQYNATYRVVSVLPVLHQDWLNGKEYKCKVSNDALPAPEEETISKAKGQPREPQVYTLPPSRCELTKNQVSLSCAVKGFYPSDIAVEWESNGQPENNYKTTPPVLDSDGSFFLVSKLTVDKSRWQQGNVFSCSVMHEALHNHYTQKSLSLSP
light: DIQMTQSPSSLSASVGDRVTITCRASQDIHKYIAWYQQKPGQAPRLLIQYTSTLQPGVPSRFSGSGSGTDYTFTISSLQPEDIATYYCLQYEQLRTFGGGTKVEIKRTVAAPSVFIFPPSDEQLKSGTASVVCLLNNFYPREAKVQWKVDNALQSGNSQESVTEQDSKDSTYSLSSTLTLSKADYEKHKVYACEVTHQGLSSPVTKSFNRGEC
notes: as for B2
For the molecule B3, the “Relative value to KD between G1d and hFcγRs” value in experiment [1] stood at 685 times.

B4: EGL-ART2 (H240-Kn120/L73-k0//H240-H1068/L73-k0) (antibody, human IgG1, kappa)
heavy 1: QDQLVQSGAEVKKPGASVKVSCKASGFNIKDTYIQWVRQAPGQGLEWMGRIDPLRKQTKYREKFEGRVTITADTSTNTAYMELSSLRSEDTAVYYCVRSGREFDYWGQGTLVTVSSASTKGPSVFPLAPSSKSTSGGTAALGCLVKDYFPEPVTVSWNSGALTSGVHTFPAVLQSSGLYSLSSVVTVPSSSLGTQTYICNVNHKPSNTKVDKKVEPKSCDKTHTCPPCPAPEYYWGPMVFLFPPKPKDTLMISRTPEVTCVVVDVSDEDPEVKFNWYVDGVEVHNAKTKPREEQYNATYRVVSVLTVLHQDWLNGKEYKCKVSNKDLPAPIEKTISKAKGQPREPQVCTLPPSRDELTKNQVSLWCLVKGFYPSDIAVEWESNGQPENNYKTTPPVLDSDGSFFLYSKLTVDKSRWQQGNVFSCSVMHEALHNHYTQKSLSLSP
heavy 2: QDQLVQSGAEVKKPGASVKVSCKASGFNIKDTYIQWVRQAPGQGLEWMGRIDPLRKQTKYREKFEGRVTITADTSTNTAYMELSSLRSEDTAVYYCVRSGREFDYWGQGTLVTVSSASTKGPSVFPLAPSSKSTSGGTAALGCLVKDYFPEPVTVSWNSGALTSGVHTFPAVLQSSGLYSLSSVVTVPSSSLGTQTYICNVNHKPSNTKVDKKVEPKSCDKTHTCPPCPAPELLGGPSVFLFPPKPKDTLMISRTPEVTCVVVDVSHEEPEVKFNWYVDGVEVHNAKTKPREEQYNSTYRVVSVLTVLHQDWLNGKEYKCKVSNDALPKPIEETISKAKGQPREPQVYTLPPSRCELTKNQVSLSCAVKGFYPSDIAVEWESNGQPENNYKTTPPVLDSDGSFFLVSKLTVDKSRWQQGNVFSCSVMHEALHNHYTQKSLSLSP
light: DIQMTQSPSSLSASVGDRVTITCRASQDIHKYIAWYQQKPGQAPRLLIQYTSTLQPGVPSRFSGSGSGTDYTFTISSLQPEDIATYYCLQYEQLRTFGGGTKVEIKRTVAAPSVFIFPPSDEQLKSGTASVVCLLNNFYPREAKVQWKVDNALQSGNSQESVTEQDSKDSTYSLSSTLTLSKADYEKHKVYACEVTHQGLSSPVTKSFNRGEC
notes: Anti-human Epiregulin IgG1 with heterodimeric (knobs-into-holes) Fc variant; also called Kn120/H1068
Consider B4, for which the “A/I ratio (KD for FcγRIIb divided by KD for each FcγR)” value in experiment [2] came to 58.4.
